B1: MBP-hsNXF1-N (domain or fragment)
chain: MADEGKSYSEHDDERVNFPQRKKKGRGPFRWKYGEGNRRSGRGGSGIRSSRLEEDDGDVAMSDAQDGPRVRYNPYTTRPNRRGDTWHDRDRIHVTVRRDRAPPERGGAG
B2: MBP-hsNXF1-N(21-30/A) (domain or fragment)
chain: MADEGKSYSEHDDERVNFPQAAAAAAAAAAWKYGEGNRRSGRGGSGIRSSRLEEDDGDVAMSDAQDGPRVRYNPYTTRPNRRGDTWHDRDRIHVTVRRDRAPPERGGAG
B3: MBP-hsNXF1-N(71-75/A) (domain or fragment)
chain: MADEGKSYSEHDDERVNFPQRKKKGRGPFRWKYGEGNRRSGRGGSGIRSSRLEEDDGDVAMSDAQDGPRVAAAAATTRPNRRGDTWHDRDRIHVTVRRDRAPPERGGAG
B4: GST-hsNXF1 (full-length human NXF1) (natural protein)
chain: MADEGKSYSEHDDERVNFPQRKKKGRGPFRWKYGEGNRRSGRGGSGIRSSRLEEDDGDVAMSDAQDGPRVRYNPYTTRPNRRGDTWHDRDRIHVTVRRDRAPPERGGAGTSQDGTSKNWFKITIPYGRKYDKAWLLSMIQSKCSVPFTPIEFHYENTRAQFFVEDASTASALKAVNYKILDRENRRISIIINSSAPPHTILNELKPEQVEQLKLIMSKRYDGSQQALDLKGLRSDPDLVAQNIDVVLNRRSCMAATLRIIEENIPELLSLNLSNNRLYRLDDMSSIVQKAPNLKILNLSGNELKSERELDKIKGLKLEELWLDGNSLCDTFRDQSTYISAIRERFPKLLRLDGHELPPPIAFDVEAPTTLPPCKGSYFGTENLKSLVLHFLQQYYAIYDSGDRQGLLDAYHDGACCSLSIPFIPQNPARSSLAEYFKDSRNVKKLKDPTLRFRLLKHTRLNVVAFLNELPKTQHDVNSFVVDISAQTSTLLCFSVNGVFKEVDGKSRDSLRAFTRTFIAVPASNSGLCIVNDELFVRNASSEEIQRAFAMPAPTPSSSPVPTLSPEQQEMLQAFSTQSGMNLEWSQKCLQDNNWDYTRSAQAFTHLKAKGEIPEVAFMK
B5: importin 4 (natural protein)
chain: MESAGLEQLLRELLLPDTERIRRATEQLQIVLRAPAALPALCDLLASAADPQIRQFAAVLTRRRLNTRWRRLAAEQRESLKSLILTALQRETEHCVSLSLAQLSATIFRKEGLEAWPQLLQLLQHSTHSPHSPEREMGLLLLSVVVTSRPEAFQPHHRELLRLLNETLGEVGSPGLLFYSLRTLTTMAPYLSTEDVPLARMLVPKLIMAMQTLIPIDEAKACEALEALDELLESEVPVITPYLSEVLTFCLEVARNVALGNAIRIRILCCLTFLVKVKSKALLKNRLLPPLLHTLFPIVAAEPPPGQLDPEDQDSEEEELEIELMGETPKHFAVQVVDMLALHLPPEKLCPQLMPMLEEALRSESPYQRKAGLLVLAVLSDGAGDHIRQRLLPPLLQIVCKGLEDPSQVVRNAALFALGQFSENLQPHISSYSREVMPLLLAYLKSVPLGHTHHLAKACYALENFVENLGPKVQPYLPELMECMLQLLRNPSSPRAKELAVSALGAIATAAQASLLPYFPAIMEHLREFLLTGREDLQPVQIQSLETLGVLARAVGEPMRPLAEECCQLGLGLCDQVDDPDLRRCTYSLFAALSGLMGEGLAPHLEQITTLMLLSLRSTEGIVPQYDGSSSFLLFDDESDGEEEEELMDEDVEEEDDSEISGYSVENAFFDEKEDTCAAVGEISVNTSVAFLPYMESVFEEVFKLLECPHLNVRKAAHEALGQFCCALHKACQSCPSEPNTAALQAALARVVPSYMQAVNRERERQVVMAVLEALTGVLRSCGTLTLKPPGRLAELCGVLKAVLQRKTACQDTDEEEEEEDDDQAEYDAMLLEHAGEAIPALAAAAGGDSFAPFFAGFLPLLVCKTKQGCTVAEKSFAVGTLAETIQGLGAASAQFVSRLLPVLLSTAQEADPEVRSNAIFGMGVLAEHGGHPAQEHFPKLLGLLFPLLARERHDRVRDNICGALARLLMASPTRKPEPQVLAALLHALPLKEDLEEWVTIGRLFSFLYQSSPDQVIDVAPELLRICSLILADNKIPPDTKAALLLLLTFLAKQHTDSFQAALGSLPVDKAQELQAVLGLS

Assays:
GST-Imp4 = biological target: T1, GST-Imp4 (human, UniProt Q8TEX9 1-1081); assay: pull-down
T1 sequence: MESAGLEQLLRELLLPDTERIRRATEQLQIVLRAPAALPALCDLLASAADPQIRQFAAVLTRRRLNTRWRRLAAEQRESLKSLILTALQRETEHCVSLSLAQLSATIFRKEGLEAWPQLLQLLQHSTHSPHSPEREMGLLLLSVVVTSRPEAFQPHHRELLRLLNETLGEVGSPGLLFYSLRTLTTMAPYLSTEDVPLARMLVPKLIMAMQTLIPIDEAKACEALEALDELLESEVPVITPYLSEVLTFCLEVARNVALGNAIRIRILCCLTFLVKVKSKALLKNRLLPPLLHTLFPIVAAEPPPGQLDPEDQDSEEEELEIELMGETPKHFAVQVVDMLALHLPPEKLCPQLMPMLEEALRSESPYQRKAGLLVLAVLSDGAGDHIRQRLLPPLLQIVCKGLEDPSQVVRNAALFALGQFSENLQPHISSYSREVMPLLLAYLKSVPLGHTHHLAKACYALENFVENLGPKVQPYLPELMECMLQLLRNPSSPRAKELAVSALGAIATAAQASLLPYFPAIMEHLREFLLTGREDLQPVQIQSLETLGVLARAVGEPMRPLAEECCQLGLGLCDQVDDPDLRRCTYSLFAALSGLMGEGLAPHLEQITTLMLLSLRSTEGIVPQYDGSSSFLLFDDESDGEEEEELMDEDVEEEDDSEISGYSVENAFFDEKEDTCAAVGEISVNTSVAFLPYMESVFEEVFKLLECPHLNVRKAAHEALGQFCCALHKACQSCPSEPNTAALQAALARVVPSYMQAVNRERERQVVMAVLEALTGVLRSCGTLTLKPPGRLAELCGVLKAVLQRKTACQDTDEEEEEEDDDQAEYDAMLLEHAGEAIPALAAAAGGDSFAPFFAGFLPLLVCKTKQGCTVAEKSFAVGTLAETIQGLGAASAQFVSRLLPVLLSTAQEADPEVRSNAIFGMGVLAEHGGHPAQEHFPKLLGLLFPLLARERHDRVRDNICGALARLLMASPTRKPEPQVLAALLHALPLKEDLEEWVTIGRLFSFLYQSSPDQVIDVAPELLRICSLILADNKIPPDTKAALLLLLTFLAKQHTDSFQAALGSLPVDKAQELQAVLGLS

GST-Imp11 = biological target: T2, GST-Imp11 (human, UniProt Q9UI26 1-975); assay: pull-down
T2 sequence: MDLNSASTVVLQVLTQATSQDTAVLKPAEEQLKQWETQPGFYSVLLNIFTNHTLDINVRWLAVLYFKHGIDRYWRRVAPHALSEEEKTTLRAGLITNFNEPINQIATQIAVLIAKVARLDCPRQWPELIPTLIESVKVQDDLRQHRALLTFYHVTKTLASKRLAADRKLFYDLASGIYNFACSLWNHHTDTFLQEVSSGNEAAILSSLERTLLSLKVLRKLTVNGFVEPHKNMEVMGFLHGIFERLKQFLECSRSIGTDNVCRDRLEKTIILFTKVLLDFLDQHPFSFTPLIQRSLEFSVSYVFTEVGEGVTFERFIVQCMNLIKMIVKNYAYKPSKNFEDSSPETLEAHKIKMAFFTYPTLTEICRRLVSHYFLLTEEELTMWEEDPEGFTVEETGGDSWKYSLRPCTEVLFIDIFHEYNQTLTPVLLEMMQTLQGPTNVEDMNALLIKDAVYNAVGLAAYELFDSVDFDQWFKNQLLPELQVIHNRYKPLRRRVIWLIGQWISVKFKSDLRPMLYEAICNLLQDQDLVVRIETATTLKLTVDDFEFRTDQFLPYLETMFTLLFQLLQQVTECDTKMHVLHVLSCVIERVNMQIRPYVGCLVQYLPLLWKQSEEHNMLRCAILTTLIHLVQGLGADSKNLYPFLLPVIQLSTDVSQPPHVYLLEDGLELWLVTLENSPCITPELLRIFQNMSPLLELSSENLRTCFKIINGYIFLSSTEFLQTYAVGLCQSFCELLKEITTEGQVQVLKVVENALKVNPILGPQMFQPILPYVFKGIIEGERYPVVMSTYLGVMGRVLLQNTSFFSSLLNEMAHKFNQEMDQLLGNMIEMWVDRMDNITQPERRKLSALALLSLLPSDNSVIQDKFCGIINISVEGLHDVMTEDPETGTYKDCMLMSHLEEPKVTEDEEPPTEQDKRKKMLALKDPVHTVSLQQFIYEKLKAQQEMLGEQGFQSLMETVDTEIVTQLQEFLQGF

importin β [1] = biological target: T3, importin β (human, UniProt Q14974 1-876); assay: ITC
T3 sequence (Q14974 whole entry): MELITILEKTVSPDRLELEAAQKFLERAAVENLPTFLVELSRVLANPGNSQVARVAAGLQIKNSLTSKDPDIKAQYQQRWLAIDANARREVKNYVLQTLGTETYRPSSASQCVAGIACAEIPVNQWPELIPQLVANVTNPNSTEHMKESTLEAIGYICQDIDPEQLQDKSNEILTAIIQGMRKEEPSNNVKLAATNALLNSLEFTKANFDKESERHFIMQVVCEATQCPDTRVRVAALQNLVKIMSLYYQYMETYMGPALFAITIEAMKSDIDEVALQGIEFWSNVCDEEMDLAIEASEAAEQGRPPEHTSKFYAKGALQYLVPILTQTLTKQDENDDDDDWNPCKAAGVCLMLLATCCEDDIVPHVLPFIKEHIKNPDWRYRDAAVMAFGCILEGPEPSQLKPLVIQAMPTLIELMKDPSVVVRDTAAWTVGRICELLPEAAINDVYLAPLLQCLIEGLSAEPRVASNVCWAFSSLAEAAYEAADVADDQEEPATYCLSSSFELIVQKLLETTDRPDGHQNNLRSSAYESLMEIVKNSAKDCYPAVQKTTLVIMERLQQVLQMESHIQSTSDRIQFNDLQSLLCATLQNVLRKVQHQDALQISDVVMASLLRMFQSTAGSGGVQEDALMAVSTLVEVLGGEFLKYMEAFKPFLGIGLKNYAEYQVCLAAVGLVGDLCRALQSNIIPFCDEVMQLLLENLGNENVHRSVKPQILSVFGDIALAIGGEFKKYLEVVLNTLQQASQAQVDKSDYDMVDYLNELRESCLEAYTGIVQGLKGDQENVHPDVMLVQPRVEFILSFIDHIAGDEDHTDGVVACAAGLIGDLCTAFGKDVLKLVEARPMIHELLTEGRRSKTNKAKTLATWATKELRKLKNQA

karyopherin β2 = biological target: T4, karyopherin β2 (human, UniProt Q92973 1-898); assay: ITC
T4 sequence: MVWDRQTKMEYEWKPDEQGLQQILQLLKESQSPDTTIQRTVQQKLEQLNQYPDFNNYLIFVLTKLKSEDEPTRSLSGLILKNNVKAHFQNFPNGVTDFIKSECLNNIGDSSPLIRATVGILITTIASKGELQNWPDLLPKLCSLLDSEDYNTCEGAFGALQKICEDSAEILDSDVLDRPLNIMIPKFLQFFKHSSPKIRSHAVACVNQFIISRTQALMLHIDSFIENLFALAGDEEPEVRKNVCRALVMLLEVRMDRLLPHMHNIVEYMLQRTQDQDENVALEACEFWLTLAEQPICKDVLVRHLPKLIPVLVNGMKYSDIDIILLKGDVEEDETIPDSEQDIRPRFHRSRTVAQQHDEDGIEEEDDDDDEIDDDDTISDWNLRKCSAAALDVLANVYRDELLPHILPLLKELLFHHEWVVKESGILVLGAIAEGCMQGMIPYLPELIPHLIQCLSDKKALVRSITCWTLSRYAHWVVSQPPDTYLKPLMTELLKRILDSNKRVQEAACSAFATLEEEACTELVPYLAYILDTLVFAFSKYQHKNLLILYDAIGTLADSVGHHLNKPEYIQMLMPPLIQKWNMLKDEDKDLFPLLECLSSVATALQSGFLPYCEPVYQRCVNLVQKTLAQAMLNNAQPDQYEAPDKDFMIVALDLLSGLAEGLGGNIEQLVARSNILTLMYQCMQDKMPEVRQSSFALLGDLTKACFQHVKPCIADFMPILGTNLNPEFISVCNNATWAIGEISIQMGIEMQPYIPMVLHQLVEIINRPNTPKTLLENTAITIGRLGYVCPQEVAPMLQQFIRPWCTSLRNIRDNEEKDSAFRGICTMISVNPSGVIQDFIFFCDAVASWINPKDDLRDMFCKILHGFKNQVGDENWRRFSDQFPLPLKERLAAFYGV

importin β [2] = biological target: T3, importin β; assay: pull-down
importin 4 = biological target: B5; assay: pull-down
importin 11 = biological target: T5, importin 11 (human, UniProt Q9UI26 1-975); assay: pull-down
T5 sequence: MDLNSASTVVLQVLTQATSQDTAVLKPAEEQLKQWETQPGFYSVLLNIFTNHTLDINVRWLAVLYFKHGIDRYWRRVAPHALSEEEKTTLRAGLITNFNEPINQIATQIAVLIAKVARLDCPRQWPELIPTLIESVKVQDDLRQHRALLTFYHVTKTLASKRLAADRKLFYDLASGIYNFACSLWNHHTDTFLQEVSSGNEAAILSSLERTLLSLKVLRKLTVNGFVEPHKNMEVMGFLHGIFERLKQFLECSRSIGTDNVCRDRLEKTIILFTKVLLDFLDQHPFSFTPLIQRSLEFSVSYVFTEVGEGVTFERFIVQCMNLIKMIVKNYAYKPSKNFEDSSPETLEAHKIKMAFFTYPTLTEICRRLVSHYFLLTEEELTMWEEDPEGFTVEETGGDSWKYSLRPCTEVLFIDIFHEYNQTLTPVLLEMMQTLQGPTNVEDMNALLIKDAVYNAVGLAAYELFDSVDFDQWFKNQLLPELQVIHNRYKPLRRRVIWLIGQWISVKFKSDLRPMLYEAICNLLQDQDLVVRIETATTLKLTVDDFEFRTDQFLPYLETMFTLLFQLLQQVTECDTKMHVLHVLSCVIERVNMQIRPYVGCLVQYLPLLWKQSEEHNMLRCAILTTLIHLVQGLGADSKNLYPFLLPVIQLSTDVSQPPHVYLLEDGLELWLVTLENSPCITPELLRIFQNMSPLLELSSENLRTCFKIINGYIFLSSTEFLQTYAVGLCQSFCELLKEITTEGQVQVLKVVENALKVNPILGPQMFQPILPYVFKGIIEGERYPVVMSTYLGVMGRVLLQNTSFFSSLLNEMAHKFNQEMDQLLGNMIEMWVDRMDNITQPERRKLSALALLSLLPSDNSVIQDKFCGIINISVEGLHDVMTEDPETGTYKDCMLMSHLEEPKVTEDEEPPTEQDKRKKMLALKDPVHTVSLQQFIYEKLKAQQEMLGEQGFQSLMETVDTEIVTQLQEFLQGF

[3] = biological target: RanGTP (recombinant human Ran loaded with GTP) (human, UniProt P62826 1-216); assay: pull-down

Binder | dH (two-site model, site 1) (importin β [1]) [kcal/mol] | dH (two-site model, site 2) (importin β [1]) [kcal/mol] | Kd (karyopherin β2) [nM] | dH (karyopherin β2) [kcal/mol] | also measured
B1 | -7.51 | -4.6 | 40.5 | -17.2 | binding result (GST-Imp4): binds; binding result (GST-Imp11): binds
B2 | – | – | 128 | -13.9 | Kd (importin β [1]): 2230 nM; dH (importin β [1]): -2.48 kcal/mol
B3 | -7.73 | -3.28 | 215 | -12.9 | –
B4 | – | – | – | – | binding result (importin β [2]): binds; binding result (importin 4): binds; binding result (importin 11): binds
B5 | – | – | – | – | binding result [3]: binds

— PMC3226482 (Molecular Biology of the Cell, 2011)
